For assay [1], the target named is T1, IRTA5 protein as naturally expressed on human peripheral blood B lymphocytes and B cell tumor lines (human, UniProt Q96LA6 17-429).
T1 construct: Endogenous protein on untransfected human cells; also called IRTA-5 on CD19+ B cells, Daudi, Ramos, SU-DHL-4
T1 sequence: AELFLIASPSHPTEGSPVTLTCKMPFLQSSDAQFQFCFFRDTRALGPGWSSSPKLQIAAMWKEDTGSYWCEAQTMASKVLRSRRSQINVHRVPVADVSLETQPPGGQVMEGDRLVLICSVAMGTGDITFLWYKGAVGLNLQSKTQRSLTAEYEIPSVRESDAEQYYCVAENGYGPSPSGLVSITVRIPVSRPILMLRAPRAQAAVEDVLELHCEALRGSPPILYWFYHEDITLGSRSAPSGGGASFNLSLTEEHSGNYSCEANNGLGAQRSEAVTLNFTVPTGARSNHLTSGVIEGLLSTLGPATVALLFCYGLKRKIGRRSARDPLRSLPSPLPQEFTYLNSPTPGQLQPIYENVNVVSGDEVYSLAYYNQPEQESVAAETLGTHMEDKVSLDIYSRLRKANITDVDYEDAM
In words: two-colour flow cytometry on human PBMC: biotinylated antibody plus FITC-streptavidin (FL1) against PE anti-CD19 (FL2). The protocol: CD19 is a cell surface marker that can be used to distinguish peripheral blood B lymphocytes. Human peripheral blood mononuclear cells were incubated with biotinylated 2G5, biotinylated 7G8, or an isotype control biotinylated human Ab. Cells were washed and were incubated with FITC-labeled streptavidin together with a phycoerythrin-labeled anti-CD19 antibody. Cells were washed and analyzed by flow cytometry. The results are depicted in FIG. 10A. Lymphocytes were gated as black “dots” and monocytes were gated as grey “dots”. Wavelengths were selected to screen for FITC (FL 1) and phycoerythrin (FL2) signaling. […] 2G5+ or 7G8+ cells (ordinate) were also predominantly CD19+, localizing to the double-positive, upper right quadrant.
A general note: In flow cytometry, cells or beads pass a laser one at a time.

In assay [2] the target is T1, IRTA5 protein as naturally expressed on …. In words: flow cytometry on Daudi and Ramos cells, PE anti-human secondary antibody. The protocol:
The cell lines were incubated with each of the IRTA5 HuMAbs or a control human antibody, washed and detected by a phycoerythrin-labeled anti-human secondary antibody. […] The remaining 6 IRTA5 HuMAbs show a similar binding pattern (data not shown).

B1: human monoclonal antibody 2G5 (antibody, V domains shown)
VH: QVQLVESGGGVVQPGRSLRLSCAASGFTFSDYGMHWVRQAPGKGLEWVAVIWYDGNNKYYADSVKGRFTISRDNSKNTLYLQMNSLRAEDTAVYYCARDWGRAFDIWGQGTMVTVSS
VL: EIVLTQSPATLSLSPGERATLSCRASQSVSSYLAWYQQKPGQAPRLLIYDASNRATGIPARFSGSGSGTDFTLTISSLEPEDFALYYCQQLNNWPPYTFGQGTKLEIK
notes: Fully human IgG with kappa light chain from an HCo7 HuMab Mouse hybridoma; also called IRTA5 HuMAb 2G5; biotinylated 2G5
B1: the binding result in assay [1] is “binds”.

B2: human monoclonal antibody 5A2 (antibody, V domains shown)
VH: QVQVVESGGGVVQPGRSLRLSCAASGFTFSNYGMHWVRQAPGKGLEWVAGIWYDGSNKYYADSVKGRFTISRDNSKNTLYLQMNSLRAEDTAVYYCARESPNFDYWGQGTLVTVSS
VL: EIVLTQSPATLSLSPGERATLSCRASQSVSSYLAWYQQKPGQAPRLLIYDASNRATGIPARFSGSGSGTDFTLTISSLEPEDFAVYYCQQRNNWPPWTFGQGTKVEIK
notes: Fully human IgG with kappa light chain from an HCo7 HuMab Mouse hybridoma
B2: the binding result in assay [2] is listed as “binds”.

B3: human monoclonal antibody 7G8 (antibody, V domains shown)
VH: DVHLVQSGGGLVHPGGSLRLSCAGSGFTFSTYTMHWIRQAPGKDLEWVSAIGTGGGTDYADSVKGRFTISRDNAKNSLYLQMNSLRAEDMAVYYCAREVYWYFDLWGRGTLVTVSS
VL: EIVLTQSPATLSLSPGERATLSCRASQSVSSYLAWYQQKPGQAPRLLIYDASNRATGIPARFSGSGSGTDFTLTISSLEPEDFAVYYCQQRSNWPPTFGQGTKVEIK
notes: Fully human IgG with kappa light chain from an HCo7 HuMab Mouse hybridoma; also called IRTA5 HuMAb 7G8; biotinylated 7G8
In the case of B3, the binding result in assay [1] is listed as “binds”.

These data come from patent US20050266008A1 (Bristol-Myers Squibb, published 2005).
